Biological target: Lys^B29Atto655-insulin aspart (human) (UniProt P01308)
Assay: single-molecule TIRF microscopy; 10 nM labelled insulin in solution binding to labelled insulin nonspecifically immobilised on a PLL-PEG passivated surface; no Zn^2+, no phenol; 10 mM Na2HPO4, 10 mM NaH2PO4, 5 mM NaCl, pH 7.32, room temperature; seven-state HMM, rate constants of each step between monomer and hexamer (kij: state i to state j)

- k24 (association rate constant, dimer to tetramer): 2e+08 M⁻¹ s⁻¹
- k31 (dissociation rate constant, trimer to monomer): 0.062 s⁻¹
Substance: Lys^B29Atto655-insulin aspart (from UniProt P01308 90-110; P01308 25-54) (natural protein)

Source: PMC9932072
